Test results reported in PMC2806950, “Dissection of the DNA Mimicry of the Bacteriophage T7 Ocr Protein using Chemical Modification” (Journal of Molecular Biology, 2009).

Experiments:
Settings in all cases: both partners purified
[1] = biological target: T1, M.EcoKI, DNA methyltransferase component (M2S1) of the EcoKI type I R/M system (E. coli K12, UniProt P08957 1-529; P05719 1-464); test: ITC; as the Tris experiment but 20 mM Hepes in place of Tris-HCl, 25 °C, no NaCl
T1 construct: M subunit (DNA methyltransferase activity) of the EcoKI type I R/M system of E. coli K12; also called methyltransferase core; copies: 2 + 1
T1 sequence (looked up) 1: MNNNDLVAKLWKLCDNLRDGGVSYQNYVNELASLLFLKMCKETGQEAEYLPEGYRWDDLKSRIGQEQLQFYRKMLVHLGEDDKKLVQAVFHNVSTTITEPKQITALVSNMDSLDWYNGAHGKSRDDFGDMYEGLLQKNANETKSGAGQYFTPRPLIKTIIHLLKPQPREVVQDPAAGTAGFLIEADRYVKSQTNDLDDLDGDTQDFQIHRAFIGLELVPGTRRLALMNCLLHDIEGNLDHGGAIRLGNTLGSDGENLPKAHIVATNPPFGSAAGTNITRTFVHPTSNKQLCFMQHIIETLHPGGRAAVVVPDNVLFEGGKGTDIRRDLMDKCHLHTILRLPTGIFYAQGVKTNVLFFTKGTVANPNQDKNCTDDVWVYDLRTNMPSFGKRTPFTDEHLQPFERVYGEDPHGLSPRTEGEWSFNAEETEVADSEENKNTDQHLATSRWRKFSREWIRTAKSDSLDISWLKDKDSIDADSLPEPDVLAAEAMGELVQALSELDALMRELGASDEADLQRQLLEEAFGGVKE
T1 sequence (looked up) 2: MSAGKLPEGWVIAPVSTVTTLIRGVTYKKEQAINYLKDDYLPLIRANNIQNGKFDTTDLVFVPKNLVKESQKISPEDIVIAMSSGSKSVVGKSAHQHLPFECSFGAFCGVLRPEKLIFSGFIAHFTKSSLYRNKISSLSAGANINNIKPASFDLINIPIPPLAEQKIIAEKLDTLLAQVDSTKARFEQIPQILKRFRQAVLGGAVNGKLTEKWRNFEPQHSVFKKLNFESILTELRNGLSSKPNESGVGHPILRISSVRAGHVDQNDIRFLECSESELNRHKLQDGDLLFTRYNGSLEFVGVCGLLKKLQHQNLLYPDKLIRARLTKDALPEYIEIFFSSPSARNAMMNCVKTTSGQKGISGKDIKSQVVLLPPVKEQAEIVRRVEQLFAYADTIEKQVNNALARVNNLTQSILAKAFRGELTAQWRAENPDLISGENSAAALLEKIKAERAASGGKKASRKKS

[2] = biological target: T1, M.EcoKI, DNA methyltransferase …; test: ITC; Ocr (typically 40 uM) titrated into M.EcoKI (4 uM); 20 mM Tris-HCl pH 8.0, 6 mM MgCl2, 7 mM 2-mercaptoethanol, 100 uM SAM, with or without 500 mM NaCl; 10 to 30 °C
[3] = biological target: T1, M.EcoKI, DNA methyltransferase …; test: fluorescence polarisation; competition with DNA: M.EcoKI titrated into 50 nM Ocr and 2 nM of a 21-bp DNA duplex fluorescently labelled at the 5' end; anisotropy of the DNA monitored

B1: Ocr (overcome classical restriction) protein of bacteriophage T7, unmodified (natural protein, UniProt P03775 1-117, looked up)
chain: MAMSNMTYNNVFDHAYEMLKENIRYDDIRDTDDLHDAIHMAADNAVPHYYADIFSVMASEGIDLEFEDSGLMPDTKDVIRILQARIYEQLTIDLWEDAEDLLNEYLEEVEEYEEDEE
notes: Ocr, product of gene 0.3 of bacteriophage T7; 116-amino-acid monomer as printed; Homodimer; also called WT; wild type Ocr; source: plasmid pAR2993 with the gene encoding WT Ocr
**Q.** Which dH [1] does the source give for B1 here?
**A.** -21.5 kcal/mol

**Q.** What about the dH [2] of the same binder?
**A.** -20.6 kcal/mol

**Q.** And the “stoichiometry N” value [2]?
**A.** 1 Ocr dimer per molecule of M.EcoKI

**Q.** What about the Kd [3] of the same binder?
**A.** 0.044 nM
